Measurements taken from FireProtDB (doi:10.1021/bi015547k).

Conditions: Pseudomonas putida; pH 7; 25 °C; Urea; CD; potassium phosphate 20 mM; reversible: yes; whole UniProt chain shown

B1: Steroid Delta-isomerase wild type, P07445 (protein)
chain: MNLPTAQEVQGLMARYIELVDVGDIEAIVQMYADDATVEDPFGQPPIHGREQIAAFYRQGLGGGKVRACLTGPVRASHNGCGAMPFRVEMVWNGQPCALDVIDVMRFDEHGRIQTMQAYWSEVNLSVREPQ
With B1 the denaturant m value was 3.39 kcal/mol/M, the “denaturant midpoint (higher = more stable)” value was 5.22 M and the unfolding free energy was 24.3 kcal/mol.
